Assay results as given in patent US20140087995A1 (published 2014).
Numbered stars: 1 amine (or outer) side, 2 acyl side, 3 side chain; on linkers, the order of the positions; unused ones are H or OH. Bridge positions count the residues as written; N and C are the ends. Side chains are listed from the residue outwards. Ends that are not written are not given here. * marks the point of attachment. C20 diacid = O=C(O)CCCCCCCCCCCCCCCCCCC(=O)*; γGlu = O=C(O)[C@H](CCC(=O)[*:2])N[*:1]

T1: human amylin receptor (amylin 3(a) receptor: human calcitonin receptor plus RAMP-3) (human, UniProt P30988 25-474; O60896 24-148, limits assumed)
T1 sequence (looked up) 1: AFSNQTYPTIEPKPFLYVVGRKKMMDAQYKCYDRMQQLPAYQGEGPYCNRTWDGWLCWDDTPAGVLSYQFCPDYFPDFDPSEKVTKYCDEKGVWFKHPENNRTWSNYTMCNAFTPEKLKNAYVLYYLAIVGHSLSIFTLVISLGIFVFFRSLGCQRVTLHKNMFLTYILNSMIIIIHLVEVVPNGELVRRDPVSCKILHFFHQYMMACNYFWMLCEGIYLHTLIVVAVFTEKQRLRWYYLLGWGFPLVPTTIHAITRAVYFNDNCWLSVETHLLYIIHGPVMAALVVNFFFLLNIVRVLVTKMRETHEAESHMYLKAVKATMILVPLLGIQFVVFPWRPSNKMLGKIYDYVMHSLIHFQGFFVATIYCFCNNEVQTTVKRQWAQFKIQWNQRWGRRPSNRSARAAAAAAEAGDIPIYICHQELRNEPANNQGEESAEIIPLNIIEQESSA
T1 sequence (looked up) 2: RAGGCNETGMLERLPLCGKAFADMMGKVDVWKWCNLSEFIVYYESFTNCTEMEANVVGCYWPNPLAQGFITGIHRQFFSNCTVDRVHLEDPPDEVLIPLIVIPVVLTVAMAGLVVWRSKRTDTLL

T2: human calcitonin receptor (human, UniProt P30988 25-474)
T2 sequence (looked up): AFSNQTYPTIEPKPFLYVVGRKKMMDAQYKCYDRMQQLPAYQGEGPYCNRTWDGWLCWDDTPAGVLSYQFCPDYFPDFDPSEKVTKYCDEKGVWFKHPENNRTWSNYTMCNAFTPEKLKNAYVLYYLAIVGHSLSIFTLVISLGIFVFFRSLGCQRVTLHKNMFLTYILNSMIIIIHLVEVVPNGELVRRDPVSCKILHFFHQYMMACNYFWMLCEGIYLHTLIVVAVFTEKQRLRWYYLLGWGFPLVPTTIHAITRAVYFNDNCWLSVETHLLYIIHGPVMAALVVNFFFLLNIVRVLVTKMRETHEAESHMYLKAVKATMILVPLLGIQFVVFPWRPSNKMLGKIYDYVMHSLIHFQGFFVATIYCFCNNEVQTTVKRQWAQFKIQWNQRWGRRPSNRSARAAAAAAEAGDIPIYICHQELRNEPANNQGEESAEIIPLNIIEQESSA

B1: N^ε1-[(4S)-4-carboxy-4-[[(4S)-4-carboxy-4-(19-carboxynonadecanoylamino)butanoyl]amino]butanoyl]-[Glu14,Arg17,Pro21,Pro27,Pro37]-h-amylin (peptide)
peptide: K([γGlu-γGlu-C20 diacid])CNTATCATQRLAEFLRHSSPNFGAIPSSTNVGSNTP-NH2
modifications: disulfide 2-7; N-terminus assumed
SMILES: CC[C@H](C)[C@H](NC(=O)[C@H](C)NC(=O)CNC(=O)[C@H](Cc1ccccc1)NC(=O)[C@H](CC(N)=O)NC(=O)[C@@H]1CCCN1C(=O)[C@H](CO)NC(=O)[C@H](CO)NC(=O)[C@H](Cc1c[nH]cn1)NC(=O)[C@H](CCCNC(=N)N)NC(=O)[C@H](CC(C)C)NC(=O)[C@H](Cc1ccccc1)NC(=O)[C@H](CCC(=O)O)NC(=O)[C@H](C)NC(=O)[C@H](CC(C)C)NC(=O)[C@H](CCCNC(=N)N)NC(=O)[C@H](CCC(N)=O)NC(=O)[C@@H](NC(=O)[C@H](C)NC(=O)[C@@H]1CSSC[C@H](NC(=O)[C@@H](N)CCCCNC(=O)CC[C@H](NC(=O)CC[C@H](NC(=O)CCCCCCCCCCCCCCCCCCC(=O)O)C(=O)O)C(=O)O)C(=O)N[C@@H](CC(N)=O)C(=O)N[C@@H]([C@@H](C)O)C(=O)N[C@@H](C)C(=O)N[C@@H]([C@@H](C)O)C(=O)N1)[C@@H](C)O)C(=O)N1CCC[C@H]1C(=O)N[C@@H](CO)C(=O)N[C@@H](CO)C(=O)N[C@H](C(=O)N[C@@H](CC(N)=O)C(=O)N[C@H](C(=O)NCC(=O)N[C@@H](CO)C(=O)N[C@@H](CC(N)=O)C(=O)N[C@H](C(=O)N1CCC[C@H]1C(N)=O)[C@@H](C)O)C(C)C)[C@@H](C)O
notes: also called compound 13
B2: N^ε1-[(4S)--4-carboxy-4-(19-carboxynonadecanoylamino)butanoyl]-[Glu14,Arg17,Pro21,Pro27,Pro37]-h-amylin (peptide)
peptide: K([γGlu-C20 diacid])CNTATCATQRLAEFLRHSSPNFGAIPSSTNVGSNTP-NH2
modifications: disulfide 2-7; N-terminus assumed
SMILES: CC[C@H](C)[C@H](NC(=O)[C@H](C)NC(=O)CNC(=O)[C@H](Cc1ccccc1)NC(=O)[C@H](CC(N)=O)NC(=O)[C@@H]1CCCN1C(=O)[C@H](CO)NC(=O)[C@H](CO)NC(=O)[C@H](Cc1c[nH]cn1)NC(=O)[C@H](CCCNC(=N)N)NC(=O)[C@H](CC(C)C)NC(=O)[C@H](Cc1ccccc1)NC(=O)[C@H](CCC(=O)O)NC(=O)[C@H](C)NC(=O)[C@H](CC(C)C)NC(=O)[C@H](CCCNC(=N)N)NC(=O)[C@H](CCC(N)=O)NC(=O)[C@@H](NC(=O)[C@H](C)NC(=O)[C@@H]1CSSC[C@H](NC(=O)[C@@H](N)CCCCNC(=O)CC[C@H](NC(=O)CCCCCCCCCCCCCCCCCCC(=O)O)C(=O)O)C(=O)N[C@@H](CC(N)=O)C(=O)N[C@@H]([C@@H](C)O)C(=O)N[C@@H](C)C(=O)N[C@@H]([C@@H](C)O)C(=O)N1)[C@@H](C)O)C(=O)N1CCC[C@H]1C(=O)N[C@@H](CO)C(=O)N[C@@H](CO)C(=O)N[C@H](C(=O)N[C@@H](CC(N)=O)C(=O)N[C@H](C(=O)NCC(=O)N[C@@H](CO)C(=O)N[C@@H](CC(N)=O)C(=O)N[C@H](C(=O)N1CCC[C@H]1C(N)=O)[C@@H](C)O)C(C)C)[C@@H](C)O
notes: also called compound 12

Columns and labels:
[1] = molecular target: T1, human amylin receptor (amylin 3(a) …); assay: cell-based or functional assay
[2] = molecular target: T2, human calcitonin receptor; assay: cell-based or functional assay
[3] = molecular target: T1, human amylin receptor (amylin 3(a) …); assay: SPA competition binding, membranes of Amylin 3(a)/CRE-luc BHK cells, displacement of 125I-rat amylin (Assay V)
Outline: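 Membranes from BHK Amylin 3(a)/CRE-luc cells (35 ng/μL final) were mixed with SPA beads and test compounds in 50 mM Hepes pH 7.4 with 1 mM CaCl2, 5 mM MgCl₂, 0.1% OA and 0.02% Tween20. Incubation ran 120 min at 25° C with shaking; IC₅₀ came from one-site competition fitting.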

| Binder | hAmylin-R funct. EC50 [1] [nM] | Ratio hCT/hAmylin funct. (hCTR EC50 against hAmylin-R EC50) [2] | hCTR funct. EC50 [2] [nM] | IC50 [3] [nM] |
| --- | --- | --- | --- | --- |
| B1 | 0.213 | 2.2 | 0.47 | 0.264 |
| B2 | 0.101 | 1.8 | 0.185 | 0.142 |
